Measured values taken from publication PMC4529489.

Experiments:
Human Ubc13 R85S (human) = assay: ITC
[1] = biological target: Human Ubc13, wild type (human); assay: ITC
Ube2V2 (Homo sapiens) = Ube2V2 (Homo sapiens) (UniProt Q15819); settings: cited from earlier work

Human Ube2V2 (natural protein)
fold increase of Kd against WT Ubc13 (Human Ubc13 R85S (human)): > 30 times

Human Ube2V2 E20A (natural protein)
fold increase of Kd against WT Ube2V2 [1]: 4 times

Ubc13 (from UniProt P61088)
Kd (Ube2V2 (Homo sapiens)): 50 nM
